Source: the Human Domainome abundance scans (Beltran et al. 2025)
± gives the uncertainty stated by the source.

B1: Gamma-crystallin S, residues 96 to 176; numbered along this chain, P22914 (parent)
chain: IQIFEKGDFSGQMYETTEDCPSIMEQFHMREIHSCKVLEGVWIFYELPNYRGRQYLLDKKEYRKPIDWGAASPAVQSFRRI
B2: Chromodomain-helicase-DNA-binding protein 5, residues 411 to 463; numbered along this chain, Q8TDI0 (parent)
chain: EEDDHMEFCRVCKDGGELLCCDACPSSYHLHCLNPPLPEIPNGEWLCPRCTCP

Variants of: B1
Assay: abundance fitness (aPCA) (normalised: wild type 0, dead -1); higher = more abundant; growth selection in yeast, the domain comes from the species named
Settings: Homo sapiens

Variant	abundance fitness
I3D	-0.705 ± 0.38
I3L	-0.02 ± 0.053
I3T	-0.185 ± 0.053
I3R	-0.703 ± 0.081
I3H	-0.777 ± 0.26
I3G	-0.716 ± 0.067
I3E	-1 ± 0.22
I3A	-0.141 ± 0.061
I3F	0.031 ± 0.11
I3K	-1.12 ± 0.24
I3P	-1.2 ± 0.23
I3W	-0.047 ± 0.056
I3S	-0.931 ± 0.13
I3Q	-1.08 ± 0.23
I3M	-0.018 ± 0.072
I3C	-0.029 ± 0.092
I3Y	-0.286 ± 0.1
I3N	-0.627 ± 0.14
E5V	0.051 ± 0.039
E5M	0.028 ± 0.12
E5T	-0.07 ± 0.094
E5D	-0.05 ± 0.062
E5H	-0.041 ± 0.11
E5I	0.014 ± 0.086
E5S	-0.046 ± 0.04

Variant	abundance fitness
E5L	0.013 ± 0.051
E5N	-0.062 ± 0.13
E5R	-0.002 ± 0.047
E5F	0.057 ± 0.084
E5W	0.006 ± 0.072
E5C	-0.022 ± 0.064
E5Y	0.083 ± 0.1
E5P	-0.01 ± 0.065
E5K	-0.007 ± 0.094
E5G	-0.02 ± 0.039
E5Q	0.12 ± 0.092
F9M	0.061 ± 0.068
F9A	-0.064 ± 0.035
F9D	-0.409 ± 0.061
F9P	-0.481 ± 0.052
F9C	0.054 ± 0.056
F9I	-0.009 ± 0.083
F9S	-0.068 ± 0.042
F9K	-0.095 ± 0.072
F9R	-0.126 ± 0.037
F9G	-0.035 ± 0.03
F9H	0.067 ± 0.09
F9N	0.068 ± 0.082
F9Q	0.027 ± 0.071
F9E	-0.18 ± 0.049

Variant	abundance fitness
F4Q	-0.868 ± 0.14
F4V	-0.906 ± 0.082
F4Y	-0.094 ± 0.096
F4D	-0.971 ± 0.2
F4N	-0.231 ± 0.11
F4G	-0.414 ± 0.042
F4W	-0.067 ± 0.056
F4P	-0.967 ± 0.18
F4M	-0.045 ± 0.064
F4A	-0.275 ± 0.05
F4I	-0.987 ± 0.14
F4R	-0.945 ± 0.11
F4S	-0.113 ± 0.031
F4T	-0.585 ± 0.094
F4K	-0.193 ± 0.19
F4C	-0.008 ± 0.079
F4H	-0.017 ± 0.095
F4E	-1.16 ± 0.23
I1S	-0.973 ± 0.078
I1R	-1.07 ± 0.23
I1W	-1.16 ± 0.44
I1N	-0.968 ± 0.37
I1F	0.011 ± 0.091
I1C	0.104 ± 0.11
I1V	0.05 ± 0.073

Variant	abundance fitness
I1T	-0.191 ± 0.13
I1K	-0.732 ± 0.35
I1H	0.005 ± 0.46
I1G	-1.18 ± 0.16
I1L	-0.154 ± 0.084
I1A	-0.239 ± 0.051
Q2M	-0.077 ± 0.1
Q2K	0.022 ± 0.085
Q2Y	-0.099 ± 0.15
Q2P	-0.876 ± 0.22
Q2T	-0.066 ± 0.087
Q2W	0.003 ± 0.068
Q2A	-0.075 ± 0.042
Q2I	0.221 ± 0.41
Q2V	-0.041 ± 0.056
Q2H	0.088 ± 0.086
Q2D	-0.053 ± 0.084
Q2G	0.035 ± 0.046
Q2S	0.039 ± 0.075
Q2R	0.027 ± 0.04
Q2N	0.124 ± 0.13
Q2F	0.17 ± 0.16
Q2C	0.027 ± 0.13
G7S	-0.01 ± 0.054
G7N	-0.16 ± 0.13

Variant	abundance fitness
G7W	-0.041 ± 0.049
G7H	0.013 ± 0.076
G7Y	-0.025 ± 0.086
G7M	0.012 ± 0.07
G7K	0.079 ± 0.055
G7R	0.052 ± 0.033
G7P	0.007 ± 0.066
G7D	-0.019 ± 0.091
G7Q	-0.099 ± 0.064
G7A	0.043 ± 0.043
G7T	-0.03 ± 0.042
G7F	0.084 ± 0.12
G7C	-0.367 ± 0.086
G7I	0.034 ± 0.14
G7V	-0.012 ± 0.043
G7E	-0.027 ± 0.061
K6A	0.007 ± 0.066
K6L	-0.058 ± 0.067
K6M	0.049 ± 0.087
K6V	0.033 ± 0.062
K6P	-1.1 ± 0.21
K6E	0 ± 0.08
K6H	-0.02 ± 0.15
K6I	-0.009 ± 0.1
K6F	0.099 ± 0.13

Variant	abundance fitness
K6R	-0.047 ± 0.048
K6D	0.015 ± 0.085
K6S	0.085 ± 0.06
K6Y	-0.033 ± 0.096
K6Q	-0.056 ± 0.074
K6G	0.004 ± 0.044
K6T	0.007 ± 0.095
D8P	-0.012 ± 0.062
D8Y	0.078 ± 0.063
D8L	0.074 ± 0.038
D8H	0.088 ± 0.083
D8I	0.025 ± 0.084
D8C	0.111 ± 0.092
D8F	0.066 ± 0.1
D8V	0.039 ± 0.036
D8T	0.063 ± 0.052
D8A	0.038 ± 0.047
D8N	0.074 ± 0.087
D8S	0.093 ± 0.039
D8R	0.081 ± 0.035
D8K	0.162 ± 0.085

Variants of: B2
Assay: as above
Settings: Homo sapiens

Variant	abundance fitness
N42Y	0.059 ± 0.12
N42T	0.014 ± 0.065
N42R	-0.052 ± 0.075
N42Q	-0.211 ± 0.15
N42W	-0.142 ± 0.092
N42M	-0.137 ± 0.088
N42P	0.16 ± 0.075
N42S	0.058 ± 0.053
T51W	-0.346 ± 0.075
T51P	-0.078 ± 0.089
T51R	-0.035 ± 0.053
T51C	0.086 ± 0.083
T51K	0.049 ± 0.089
T51A	-0.061 ± 0.046
T51Q	0.116 ± 0.092
T51Y	-0.161 ± 0.097
T51S	-0.089 ± 0.046
T51G	-0.052 ± 0.063
T51D	0.202 ± 0.099
T51F	-0.142 ± 0.12
T51M	-0.296 ± 0.095
T51V	-0.084 ± 0.064
T51N	0.018 ± 0.051
T51E	-0.027 ± 0.063

Variant	abundance fitness
T51H	-0.228 ± 0.13
R49W	-0.073 ± 0.064
R49P	-0.106 ± 0.063
R49T	0.112 ± 0.069
R49M	0.017 ± 0.067
R49D	0.101 ± 0.049
R49V	0.033 ± 0.044
R49F	0.011 ± 0.1
R49E	0.148 ± 0.054
R49A	-0.017 ± 0.056
R49C	0.021 ± 0.057
R49S	0.04 ± 0.055
R49N	0.013 ± 0.1
R49H	-0.223 ± 0.11
R49Q	0.156 ± 0.069
R49L	-0.094 ± 0.048
R49I	-0.305 ± 0.11
R49Y	-0.088 ± 0.1
C47H	-0.235 ± 0.2
C47S	-0.653 ± 0.048
C47W	-0.914 ± 0.067
C47K	-0.848 ± 0.21
C47I	-0.009 ± 0.15
C47D	-0.678 ± 0.15

Variant	abundance fitness
C47T	-0.551 ± 0.12
C47N	-0.285 ± 0.17
C47Y	-0.929 ± 0.11
C47E	-0.853 ± 0.14
C47M	-0.906 ± 0.17
C47P	-0.899 ± 0.085
C47V	-0.808 ± 0.084
C47G	-0.533 ± 0.074
C47A	-0.542 ± 0.077
C47F	-0.318 ± 0.12
C47L	-0.716 ± 0.052
C47Q	-0.192 ± 0.11
C47R	-0.737 ± 0.058
C50H	0.008 ± 0.058
C50P	-0.517 ± 0.052
C50K	-0.598 ± 0.065
C50Q	-0.619 ± 0.049
C50I	-0.751 ± 0.059
C50N	-0.591 ± 0.11
C50T	-0.74 ± 0.064
C50M	-0.77 ± 0.065
C50G	-0.613 ± 0.05
C50Y	-0.568 ± 0.11
C50D	-0.4 ± 0.062

Variant	abundance fitness
C50W	-0.477 ± 0.066
C50F	-0.756 ± 0.093
C50V	-0.675 ± 0.057
C50A	-0.628 ± 0.055
C50R	-0.686 ± 0.049
C50S	-0.702 ± 0.053
C52L	0.018 ± 0.049
C52Y	-0.295 ± 0.092
C52F	-0.141 ± 0.098
C52P	0.11 ± 0.053
C52K	-0.198 ± 0.14
C52V	0.062 ± 0.055
C52E	0.126 ± 0.08
C52S	0.138 ± 0.061
C52R	-0.026 ± 0.045
C52M	0.021 ± 0.053
C52I	-0.239 ± 0.099
C52H	0.189 ± 0.1
C52A	0.067 ± 0.054
C52Q	-0.121 ± 0.11
C52D	0.262 ± 0.085
C52N	0.222 ± 0.11
C52G	0.029 ± 0.055
G43V	0.004 ± 0.066

Variant	abundance fitness
G43M	-0.333 ± 0.2
G43L	-0.152 ± 0.068
G43S	-0.008 ± 0.065
G43T	-0.142 ± 0.09
G43N	0.039 ± 0.07
G43E	0.003 ± 0.071
G43F	0.149 ± 0.13
G43C	-0.112 ± 0.087
G43P	-0.041 ± 0.047
G43I	-0.392 ± 0.14
G43H	-0.148 ± 0.1
G43Q	0.039 ± 0.12
G43R	-0.074 ± 0.08
G43D	-0.238 ± 0.11
G43K	-0.037 ± 0.12
G43A	0.047 ± 0.076
P53T	-0.083 ± 0.16
P53L	0.13 ± 0.15
P53R	-0.669 ± 0.29
P53G	-0.097 ± 0.06
P53S	-0.153 ± 0.13
P53A	-0.091 ± 0.14
L46A	-0.027 ± 0.07
L46S	0.061 ± 0.059

Variant	abundance fitness
L46V	-0.017 ± 0.054
L46C	0.088 ± 0.096
L46R	-0.034 ± 0.06
L46T	-0.102 ± 0.058
L46G	-0.502 ± 0.081
L46F	0.101 ± 0.091
L46N	0.294 ± 0.12
L46P	-0.559 ± 0.12
L46D	-0.65 ± 0.19
L46H	-0.152 ± 0.11
L46E	-0.025 ± 0.054
L46W	-0.155 ± 0.083
L46M	-0.188 ± 0.082
L46I	0.116 ± 0.093
L46Q	-0.063 ± 0.12
L46K	0.079 ± 0.089
L46Y	-0.115 ± 0.093
E44D	0.051 ± 0.061
E44C	-0.026 ± 0.068
E44S	0.031 ± 0.059
E44K	0.102 ± 0.071
E44G	-0.027 ± 0.045
E44M	-0.312 ± 0.075
E44I	-0.156 ± 0.1

Variant	abundance fitness
E44V	-0.105 ± 0.04
E44T	0.02 ± 0.056
E44P	-0.071 ± 0.063
E44Y	-0.232 ± 0.081
E44L	-0.186 ± 0.058
E44Q	0.041 ± 0.053
E44H	0.056 ± 0.073
E44A	-0.095 ± 0.048
E44N	-0.083 ± 0.09
E44F	-0.361 ± 0.085
W45A	-0.45 ± 0.058
W45H	-0.512 ± 0.2
W45T	-0.7 ± 0.082
W45L	-0.52 ± 0.047
W45P	-0.472 ± 0.067
W45R	-0.449 ± 0.043
W45E	-0.523 ± 0.083
W45M	-0.491 ± 0.088
W45F	-0.593 ± 0.2
W45G	-0.457 ± 0.045
W45I	-0.667 ± 0.16
W45S	-0.459 ± 0.071
W45C	-0.604 ± 0.1
W45Y	-0.299 ± 0.1

Variant	abundance fitness
W45V	-0.579 ± 0.046
W45Q	-0.506 ± 0.061
W45D	-0.761 ± 0.18
P48Q	-0.09 ± 0.079
P48T	-0.004 ± 0.092
P48C	0.023 ± 0.12
P48Y	-0.149 ± 0.059
P48D	0.212 ± 0.11
P48K	-0.419 ± 0.14
P48A	-0.27 ± 0.085
P48W	-0.412 ± 0.12
P48L	-0.564 ± 0.1
P48F	0.31 ± 0.12
P48H	0.014 ± 0.13
P48I	-0.312 ± 0.24
P48M	-0.389 ± 0.09
P48N	-0.106 ± 0.12
P48V	-0.24 ± 0.075
P48E	0.177 ± 0.11
P48S	-0.025 ± 0.071
